Results: patent publication CN109021107A (JIANGSU RUONAIBO BIOLOGY MEDICAL TECH CO LTD, dated 2018)
Positions count from the first letter of the chain named.

B1: murine monoclonal antibody specifically binding PD-L1 (hybridoma clone of Example 1) (antibody, V domains shown)
VH: EVQLQESGPSLVQPSQTLSLTCSVTGDSFTSGYWNWIRKFPDNKLQYMGYVSYTGSTYYIPSLKSRISITRDTSKNQYFLQLNSVTSEDTATYFCAGYRDWLHGYFDYWGQGTTLTVSS
VL: DIVMTQSQKFMSTSIGDRVSVTCKASQNVGTNVAWYQLKPGQSPKALIYSASYRFSGVPDRFTGSGSGTEFTLTITNVQSEDLTDYFCQQYNGYPLTFGAGTKLEVK
notes: Mouse IgG from hybridoma supernatant; also called 鼠源特异性结合PD-L1单克隆抗体; 鼠源抗体
B2: HUL01 scFv displayed on phage (scFv)
scFv: EVQLQESGPGLVKPSQTLSLTCTVSGDSFSSGYWNWIRQHPGKGLEYIGYVSYTGSTYYIPSLKSRVTISRDTSKNQFSLKLSSVTAADTAVYYCAGYRDWLHGYFDYWGQGTTVTVSSGGGGSGGGGSGGGGSDIQMTQSPSSLSASVGDRVTITCKASQNVGTNVAWYQQKPGKAPKRLIYSASYRFSGVPSRFSGSGSGTEFTLTISSLQPEDFATYYCQQYNGYPLTFGQGTKLEIK
notes: also called clone1; clone2
B3: HUL02 scFv displayed on phage (scFv)
scFv: B2 scFv with G164M, T165D
notes: Phage clone from the library built on the HUL01 scFv template; also called clone4
B4: HUL01 (antibody, human IgG1, kappa, N297A, V domains shown)
VH: EVQLQESGPGLVKPSQTLSLTCTVSGDSFSSGYWNWIRQHPGKGLEYIGYVSYTGSTYYIPSLKSRVTISRDTSKNQFSLKLSSVTAADTAVYYCAGYRDWLHGYFDYWGQGTTVTVSS
VL: DIQMTQSPSSLSASVGDRVTITCKASQNVGTNVAWYQQKPGKAPKRLIYSASYRFSGVPSRFSGSGSGTEFTLTISSLQPEDFATYYCQQYNGYPLTFGQGTKLEIKR
notes: expressed in 293C18 cells, Protein A purified; also called clone1; clone2
B5: HUL02 (antibody, human IgG1, kappa, N297A, V domains shown)
VH: B4 VH
VL: B4 VL with G30M, T31D
notes: also called clone4; PD-L1抗体HUL02

Assays:
[1] = molecular target: T1, recombinant PD-L1-His protein (human, UniProt Q9NZQ7 19-238); experiment: hybridoma supernatant screen, ELISA on coated PD-L1-His
T1 construct: also called 重组PD-L1-HIS蛋白; PD-L1蛋白; not shown: His tag

[2] = molecular target: T2, PD-L1 on PD-L1 overexpressing cells (human, UniProt Q9NZQ7 19-290); experiment: phage cell-binding ELISA on PD-L1 overexpressing cells, anti-M13-HRP
T2 construct: whole, on cells; also called PD-L1过表达细胞; PD-L1稳定过表达CHO细胞株

[3] = molecular target: T2, PD-L1 on PD-L1 overexpressing cells; experiment: inhibition of biotinylated PD1 binding to PD-L1 overexpressing cells, Eu-streptavidin
[4] = molecular target: T3, recombinant PD-L1-Fc protein (human, UniProt Q9NZQ7 19-238, limits assumed); experiment: competition ELISA, coated PD-L1-Fc, competitor biotinylated PD1 0.5ug/ml
T3 construct: also called 重组PD-L1-Fc蛋白; PD-L1重组蛋白; not shown: Fc part

[5] = molecular target: T2, PD-L1 on PD-L1 overexpressing cells; experiment: cell binding, PD-L1 overexpressing cells, anti-human-IgG-Eu fluorescence
[6] = molecular target: T1, recombinant PD-L1-His protein; experiment: ELISA, coated PD-L1-HIS, donkey anti-human IgG-HRP
[7] = molecular target: T1, recombinant PD-L1-His protein; experiment: SPR, BIAcore T200, antibody captured by goat anti-human IgG on CM5 chip, 300nM PD-L1-HIS as analyte
[8] = molecular target: T2, PD-L1 on PD-L1 overexpressing cells; experiment: cell-based or functional assay
recombinant human B7-1 = molecular target: T4, recombinant human B7-1 (human, UniProt P33681 35-242, limits assumed); experiment: ELISA, coated recombinant protein, anti-human IgG-HRP
T4 construct: also called 人B7-1
T4 sequence (looked up): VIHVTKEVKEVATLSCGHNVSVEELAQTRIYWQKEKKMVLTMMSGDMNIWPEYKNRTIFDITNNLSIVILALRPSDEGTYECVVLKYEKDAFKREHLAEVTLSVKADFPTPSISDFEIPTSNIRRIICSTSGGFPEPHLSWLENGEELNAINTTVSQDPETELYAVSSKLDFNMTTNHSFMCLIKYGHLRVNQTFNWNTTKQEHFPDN

recombinant human PDL2 = molecular target: T5, recombinant human PDL2 (human, UniProt Q9BQ51 20-220, limits assumed); experiment: as above
T5 construct: also called 人PDL2
T5 sequence (looked up): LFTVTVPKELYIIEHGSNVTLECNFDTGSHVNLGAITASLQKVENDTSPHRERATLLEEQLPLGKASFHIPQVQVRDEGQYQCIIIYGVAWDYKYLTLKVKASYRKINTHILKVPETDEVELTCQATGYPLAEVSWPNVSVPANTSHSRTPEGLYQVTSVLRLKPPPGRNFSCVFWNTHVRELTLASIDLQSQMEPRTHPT

recombinant human B7-2 = molecular target: T6, recombinant human B7-2 (human, UniProt P42081 24-247, limits assumed); experiment: as above
T6 construct: also called 人B7-2
T6 sequence (looked up): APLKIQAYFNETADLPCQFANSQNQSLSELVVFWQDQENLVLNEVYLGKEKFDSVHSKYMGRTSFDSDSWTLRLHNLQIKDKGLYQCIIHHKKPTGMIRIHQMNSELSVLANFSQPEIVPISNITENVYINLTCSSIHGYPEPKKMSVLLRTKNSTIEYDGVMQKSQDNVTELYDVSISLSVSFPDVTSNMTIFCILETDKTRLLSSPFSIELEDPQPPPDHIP

T2 sequence (Q9NZQ7 19-290): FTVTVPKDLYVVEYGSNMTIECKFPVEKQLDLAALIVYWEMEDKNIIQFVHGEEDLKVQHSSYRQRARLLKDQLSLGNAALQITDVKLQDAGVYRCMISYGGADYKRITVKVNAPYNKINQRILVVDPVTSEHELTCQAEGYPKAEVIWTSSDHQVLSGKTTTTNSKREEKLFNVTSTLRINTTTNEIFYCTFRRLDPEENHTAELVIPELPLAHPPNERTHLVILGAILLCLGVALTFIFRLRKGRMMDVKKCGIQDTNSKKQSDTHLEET
T1 sequence (Q9NZQ7 19-238 limits assumed): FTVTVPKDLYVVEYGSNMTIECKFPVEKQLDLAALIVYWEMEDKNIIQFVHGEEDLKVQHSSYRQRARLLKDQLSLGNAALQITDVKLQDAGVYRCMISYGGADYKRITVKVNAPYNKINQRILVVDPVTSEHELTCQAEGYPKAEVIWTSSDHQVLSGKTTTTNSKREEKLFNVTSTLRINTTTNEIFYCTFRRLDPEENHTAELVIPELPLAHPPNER
T3 sequence (Q9NZQ7 19-238 limits assumed): as above

Row | Binder | binding result [2] | IC50 [3] [µg/mL] | IC50 [4] [µg/mL] | EC50 [5] [µg/mL] | further results
1 | B1 |  |  |  |  | binding result [1]: binds
2 | B2 | binds |  |  |  | 
3 | B3 | binds |  |  |  | 
4 | B4 |  | 0.228 | 0.117 | 0.13 | 
5 | B5 |  | 0.115 | 0.0716 | 0.0695 | EC50 [6]: 0.0206 µg/mL; Kd [7]: 0.17 nM; 刺激T淋巴细胞IL-2分泌的EC50 (MLR, CD4+ T cells and DC) [8]: 0.062 µg/mL; binding result (recombinant human B7-1): no binding (tested: 1ug/ml); binding result (recombinant human PDL2): no binding (tested: 1ug/ml); binding result (recombinant human B7-2): no binding (tested: 1ug/ml)
